# Assay: soluble on expression in E. coli; label from the status in PepcDB or PDB records
row,Sequence,soluble on expression in E. coli
1,QLTAAQELMIQQLVAAQLQCNKRSFSDQPKVTPWPLGADPQSRDARQQRFAHFTELAIISVQEIVDFAKQVPGFLQLGREDQIALLKASTIEIMLLETARRYNHETECITFLKDFTYSKDDFHRAGLQVEFINPIFEFSRAMRRLGLDDAEYALLIAINIFSADRPNVQEPGRVEALQQPYVEALLSYTRIKRPQDQLRFPRMLMKLVSLRTLSSVHSEQVFALRLQDKKLPPLLSEIWDVHE,not soluble
2,QLTPFQQEVSRGLKKSVCHKENMLIHAVTGAGKTEMIYETLASILNQGGAVALASPRIDVCIELYKRLSRDFSCPISLLYGESEAYERSPLVIATTHQLLKFYRAFDLLIIDEVDAFPFVDNKMLYYAVDHCLKSDGVKVFLTATS,not soluble
3,QLVLTQSSSASFSLGASAKLTCTLSSQHSTYTIEWYQQQPLKPPKYVMDLKQDGSHSTGDGIPDRFSGSSSGADRYLSISNIQPEDEAMYICGVGDTIKEQFVYVFGGGTKVTVLGEPKSTPTLTVFPPSSEELKENKATLVCLISNFSPSGVTVAWKANGTPITQGVDTSNPTKEGNKFMASSFLHLTSDQWRSHNSFTCQVTHEGDTVEKSLSPAECL,soluble
4,QMLVNKARLANLNVSLEEKVMQRTVVLSEANHKLQQTVRQYEQSQQELRQTQQELTQAAKLALLGELSASINHEINQPLAALRTYTENSQRLLSMERYPMVADNLNKMLSLNETIAEVIARLKVFTRKTSHEPHNEVSILHDAVHNATSILSNKLIKQGVTLKVPTIDHEVRLAIHSVE,not soluble
5,QNSPQDYLAVHNDARAQVGVGPMSWDANLASRAQNYANSRAGDCNLIHSGAGENLAKGGGDFTGRAAVQLWVSERPSYNYATNQCVGGKKCRHYTQVVWRNSVRLGCGRARCNNGWWFISCNYDPVGNWIGQRPY,soluble
6,QNYSIERDVRLAPGEHFQIEGYDFYFSGLRDKDGPNYDGYIADFEITHDGKYINTLHAEKRFYRTAKSMMTEAAIDRGITRDLYIAMGERLDDNRSWAVRIYYKPFVR,not soluble
7,QPAHSLWLDLTQGEEALLKGMKEMHRRNARLALKRVALSVEGEEAFAEFYRLFTETNRRARLLQHDEAYYRAVLKEMNQPLGEAFLALARKDGEALAAGLFVAFAGKVAYLYGGSTRKHPEAKAPMGMHLAAIRHGMARGYRVYDLWGIPKNPRGSHAEGIHRFKEGFGGQRVQFPA,not soluble
8,QQEVYGMMPRDETDSKTASASPWKSARLMVHTVATFNSIKER,soluble
9,QRSYERDFPHHDRICIVKTHGTRQSQEGDKPEELDFSQVSGGVAPAIQEEIPGVELATRTTLYGTSKMILEDNKTYETKTLLAEPAFLDMFGVELIAGVRDSALRDNMTCLISESLARKMGGDVLGKRLRPAESKSDRAITIGGVFEDLPHNSSIQADMLLPITWMPAESLNNWIGNDRYIAYVRLRPGVSPESLDEALLEMQKRHQDMEVFRKAGVELHYSLTPFNRLRLEDPTLVNMLRIQQ,soluble
10,QSEPELKLESVVIVSRHGVRAPTKATQLMQDVTPDAWPTWPVKLGWLTPRGGELIAYLGHYQRQRLVADGLLAKKGCPQSGQVAIIADVDERTRKTGEAFAAGLAPDCAITVHTQTDTSSPDPLFNPLKTGVCQLDNANVTDAILSRAGGSIADFTGHRQTAFRELERVLNFPQSNLCLKREKQDESCSLTQALPSELKVSADNVSLTGAVSLASMLTEIFLLQQAQGMPEPGWGRITDSHQWNTLLSLHNAQFYLLQRTPEVARSRATPLLDLIKTALTPHPPQKQAYGVTLPTSVLFIAGHDTNLANLGGALELNWTLPGQPDNTPPGGELVFERWRRLSDNSQWIQVSLVFQTLQQMRDKTPLSLNTPPGEVKLTLAGCEERNAQGMCSLAGFTQIVNEARIPACSL,soluble
11,QSSAQRHADLNTLIGHTEPVANIAQDLYSSLSLADTEASASFVRGTNDNYVEYIQKAALLVTQTDGDIANIATQLPVYTGLVETARANNRQGHPVGVAYMSEASTLMQESILPAASQLYLNAAEQVSTAQRNLARPQ,not soluble
12,QTFSEEDHAILASYFPIVDGIAALIGEHCEIVLHSLEFLENSAIYIANGHNTDRKIGSPLTDKALKSLHQMQTDSVSKPYFTRLKGGILMKSITIAIRNSKQHVIGFICININLDVPTAQFLTSFIPRTQDDEN,not soluble

# Reference: the DeepSol protein solubility set
